This note sets out measurements from article PMC4094278, “The Dictyostelium discoideum RACK1 orthologue has roles in growth and development” (Cell Communication and Signaling : CCS, 2014).

The data set deals with the molecule itself. Description: cross-linking; 5-10 μg/100 μl recombinant protein in 1 x PBS, pH 7.4, room temperature, 0.001% glutaraldehyde, 5, 10 and 20 min, stopped with 0.1 M glycine; SDS-PAGE and western blot with anti-DdRACK1 antibodies; dimers and oligomers also seen without glutaraldehyde.

B1: recombinant DdRACK1 full length protein cleaved from the GST part (natural protein, D. discoideum, UniProt P46800 1-329, looked up)
chain: MEQQKAPQVTYLEVGSLVGHNGFVTSIAVSPENPDTIISSSRDKTVMVWQLTPTDATSPGKAHRSLKGHSHFVQDVVISHDGQFALSGSWDNTLRLWDITKGVSTRLFKGHTQDVMSVAFSSDNRQIISGSRDATIKVWNTLGECKFTLEGPEAHQDWVSCIRFSPNTPTIVSGSWDNKVKIWDIKSFKCNHTLTDHTGYVNTVTISPDGSLCASGGKDTFACLWELSSGKPLYKLEARNTINALAFSPNKYWLSAATDDKIIIWDLLTKQVLAEIVPEVKEQAFDSKKKKESKPKAPACLSLAWSADGSVLYAGYNDGLIRVYKSSSQ
notes: D. discoideum RACK1 (GpbB), 329 amino acids; Cloned in pGEX-4T-1; cleaved with thrombin; also called GpbB; D. discoideum RACK1; source: E. coli XL1 Blue, purified (GST-Sepharose, thrombin cleavage, DE-52 anion exchange)
Consider B1, for which the binding result is given as “binds”.
